Measured values as given in the supplement of paper PMC10567573.

B1: PWWP2B (parent)
chain: TIRLRPRQVLCEKCKSTLSPPEAS

Variants of: B1
Experiment: protein stability index of a GFP-peptide fusion (GPS, HEK-293T) (PSI 1-6); higher = more stable
Settings: c terminus: a fixed tail appended
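Note: lentivirally expressed fusions sorted by FACS into six bins by GFP to DsRed ratio, PSI derived from sequencing read proportions per bin multiplied by bin number.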

Protein stability index: each site, then its substitutions
E12: M 2.26; D 3.28; Y 2.2; T 2.82; H 3.03; G 2.59; N 2.81; A 2.59; V 2.39; C 2.26; K 2.42; S 3.01; P 2.99; R 3.08; I 1.93; Q 2.33; W 2.28; L 1.97; F 2.25
L4: N 3.58; D 4.18; R 3.03; E 3.79; T 3.85; A 2.99; P 3.45; Y 2.87; M 3.32; C 3.45; V 3.22; S 3.6; I 2.79; Q 3.04; K 3.58; G 3.63; W 2.31; H 3.23; F 2.77
R5: C 2.77; T 3.1; F 3.19; P 3.54; G 3.37; D 3.73; S 3.43; A 3.34; H 3.16; M 3.22; L 2.91; Y 2.73; K 2.96; V 3.52; I 2.93; N 2.78; W 2.9; Q 3; E 4.03
Q8: H 2.77; S 3.05; F 2.24; E 3.33; Y 2.74; M 2.92; D 3.49; W 2.19; V 2.35; A 2.85; N 2.97; K 2.99; P 3.06; I 2.64; G 2.96; C 2.09; L 2.58; R 2.95; T 2.76
V9: R 2.94; P 3.13; S 3.16; F 2.72; T 3.33; C 3.42; Y 2.54; Q 3.31; K 2.85; W 2.24; H 2.97; L 2.37; E 3.35; G 2.64; N 3.58; M 2.73; I 3; D 3.19; A 3.61
C11: T 3.6; D 3.93; K 3.58; Y 3.25; L 2.84; V 3.25; W 2.23; F 2.53; S 3.73; I 3.33; P 3.46; E 4.15; R 3.4; N 3.62; G 3.85; M 2.86; A 3.06; Q 3.57; H 3.13
T1: M 2.23; Q 3.11; N 3.63; A 2.59; Y 1.76; D 3.76; W 2.12; S 2.98; H 2.8; K 2.98; R 2.65; C 2.91; E 3.55; G 3.09; P 3.43; I 2.44; L 2.28; F 1.72; V 2.78
R7: S 3.01; G 3.12; Q 3.38; H 3.1; K 2.99; F 2.94; Y 2.69; I 2.9; T 3.31; C 3.2; N 2.87; A 3.48; V 2.96; W 2.16; E 3.9; P 3.33; D 3.85; L 2.62; M 2.92
K13: C 2.74; E 3.32; F 2.46; D 3.39; A 2.72
P6: F 2.05; N 2.53; S 3.1; Q 3.02; I 1.62; R 2.52; H 2.77; C 2.46; M 2.37; V 2.19
